Measurements: the supplement of paper PMC9170038

System: MS2 coat protein
Experiment: apparent KD of MS2 coat protein; higher = weaker reporter binding
Conditions: Eterna round: R107
Method: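 RNA-MaP round R107: designed RNA switches with theophylline, tryptophan, arginine or FMN aptamers are transcribed on-chip within common flanks. They are titrated with SNAP-549-labelled MS2 coat protein in RNA-MaP buffer (100 mM Tris pH 7.5, 80 mM KCl, 4 mM MgCl2), without ligand or with the indicated ligand. Median apparent KD per design.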

[1] = input ligand: theophylline 20 uM
[2] = input ligand: theophylline 2 mM
[3] = input ligand: tryptophan 2.4 mM

Sequence | apparent KD of MS2 coat protein (input ligand: arginine 13.2 mM) | apparent KD of MS2 coat protein (input ligand: none) | apparent KD of MS2 coat protein [1] | apparent KD of MS2 coat protein [2] | apparent KD of MS2 coat protein [3]
ACAUGAGGAUCACCCAUGUACAUGAGGGAAGGAGCGGUACAUGAGCCAGGUAGGUCGCCCAUGAGCAUCAGCCAUGUACAUCAGC [vv,mmullin] | 40.9 nM | 115 nM | 97.6 nM | 101 nM | 75.7 nM
ACAUGAGGAUCACCCAUGUACGGUAUCAAUCGAGGACCGGUACGGCCGCCACUCGGAAAUAGAAGCGAUUAUUAGUGUUCUUUGU [Same State - Tryptophan A / A] | 16.1 nM | – | 19 nM | 16.6 nM | –
ACAUGAGGAUCACCCAUGUAUUACCGGGAAGGAGCGCGUAAGGACGCAGGUAGGUCGCUCGGCGUCCGGCCGCAAGGCUGGACGA [#1 Same State - Arginine A Attempt #17 (HarryS)] | 12.3 nM | 16.3 nM | 18.1 nM | 16.4 nM | 15.2 nM
ACAUGAGGAUCACCCAUGUGAAGCAGGGUACGAGGACCGGUACGGCCGCCACUCGAGCAUUAUACCGAGUGAAUGGCAACGAUGU [whbob_Ex_trypto A_2s17] | 14.4 nM | – | 19 nM | 21.1 nM | –
ACAUGAGGAUCACCCAUGUGAAGCAGGGUACGAGGACCGGUACGGCCGCCACUCGAGGAUUAUACCGAGUGAAUGGCAACGAUGU [whbob_Ex_trypto A_2s18] | 13.2 nM | 14.1 nM | 21.8 nM | 17.8 nM | 15.2 nM
ACAUGAGGAUCACCCAUGUGCCGUCUUGAUACCAGACGCGAAGUAGUCCCUUGGCAGCAACUACGUGACGGUCGCGCAUGUGUAG [bcxmullin] | 17.8 nM | – | 21.4 nM | – | 16.1 nM
ACAUGAGGAUCACCCAUGUGUGUAAAUCCUCGAGGACCGGUACGGCCGCCACUCGAACGAGUGUAAGUUGAAUGUAACAUUCAAC [SS Trp A v1] | 47.3 nM | – | 123 nM | 104 nM | –
ACAUGAGGAUCACCCAUGUGUGUAAGUCCUCGAGGACCGGUACGGCCGCCACUCGAACGAGUGUAACAUACUUGUUACAAGUAUG [SS Trp A s3] | 18.5 nM | – | 39.9 nM | 43.3 nM | –
ACAUGAGGAUCACCCAUGUUCAUGCGGGAAGGAGCGUGCGGAAGCACAGGUAGGUCGCCCUCAAUAUCUAACGUUACGUUCAUGA [#26 Same State - Arginine A] | 13.7 nM | 14.3 nM | 18.4 nM | 14.4 nM | 15.5 nM
ACAUGAGGAUCACCCAUGUUCCUCGCCGAUACCAGUGAAGAAUUACGCCCUUGGCAGCGGAAUGAGUGUUUUGGAGAUGAGGUAC [6.aB] | 84.4 nM | – | 112 nM | – | 81 nM
ACAUGAGGAUCACCCAUGUUGAGCACAGAAGGAGCGUGAUUAAGCACAGGUAGGUCGCUGUACUUAUCGAGCGUUAGCUCGAUAC [JR_Nu_SSArginiA_Sub030] | 21 nM | 22.3 nM | 32.6 nM | 28.3 nM | 22.8 nM
ACAUGAGGAUCACCCAUGUUUGUUGUUCCUCGAGGACCGGUACGGCCGCCACUCGAACGAGUGGCACGCGAGUGCGCACUCGCGU [aPa] | 13.9 nM | – | 19.6 nM | 13.1 nM | 13 nM
ACAUGUCUUAUAGAUACCAGACAGGACAUGAGGAUCACCCAUGUAAUGUAUACAUGCAGAGUCCCUUGGCAGCUAAGGUCAUAGA [#26 Same State - Theophylline B] | 54.6 nM | – | 110 nM | – | 92.8 nM
ACAUUAGUUGGCGAUACCAGCUAUAGGCCUUCUGGGCGACAUGAGGAUCACCCAUGUGAUGGCCCUUGGCAGCGCUGAUUGAUGU [SSTheo B #29] | 65.6 nM | – | 167 nM | – | 182 nM
ACAUUGCGCACGGCCGCCACUGGCUAUAGAUUUAUAGCAUUAAUGAACAUGAGGAUCACCCAUGUCAGGACCGGGUGCGAACCAU [SSTryp B #9] | 14 nM | – | 22.7 nM | 27.6 nM | –
ACCAGCACACAUGAUACCAGCGACAUGAGGAUCACCCAUGUACGGCGUGUAUCGAAAGGUUGCCCUUGGCAGCAUGAUAGUGCUA [Ratiarla] | 14.5 nM | – | 28.2 nM | – | 12.8 nM
ACCGCAUCCGUAUAGGAUGCGGGCCAUGAAGGAGCGUGGGAAACCACAGGUAGGUCGCAUGGGUUACAUGAGGAUCACCCAUGUG [Jaws] | 26.4 nM | 166 nM | 517 nM | 585 nM | 534 nM

Sequence | apparent KD of MS2 coat protein (input ligand: arginine 13.2 mM) | apparent KD of MS2 coat protein (input ligand: none) | apparent KD of MS2 coat protein [1] | apparent KD of MS2 coat protein [2] | apparent KD of MS2 coat protein [3]
ACCUAAGCCACAGAUACCAGAGUAAUAGGCCAAUUUCAAAACAUGAGGAUCACCCAUGUACUCCCUUGGCAGCUGCGAAUCGAAA [theeternabot_exclusion_MS2_Theo_B_30] | 11.1 nM | – | 13.6 nM | – | 10.3 nM
ACCUGUACGAAAAGUGCAGGACAUGGAAAUCGAGGACCGGUACGGCCGCCACUCGUAUAAAACAAGUGGAUCACCCUUGUCCAUG [TrypAS 2 #AlternativeMS2 #Zipper #StaticStem] | 320 nM | 773 nM | 960 nM | 1500 nM | 1360 nM
ACCUGUACGAAAAGUGCAGGACAUGGUAAACGAGGACCGGUACGGCCGCCACUCGAAUAACAAGUGGAUCACCCUUGUAACCAUG [TrypAS 5 #AlternativeMS2 #Zipper #StaticStem] | 39.6 nM | 223 nM | 573 nM | 3020 nM | 1090 nM
ACGAAACAAGCGGCCGCCACUUCGUGGUGCUAAGGCUUGAUACUACAUGAGGAUCACCCAUGUCGAAGGACCGGGCUUGCGACUG [theeternabot_sameState_MS2_Trp_B_33] | 43.4 nM | – | 80 nM | 60 nM | –
ACGAACGAUAGUGAUACCAGACGUACAUGAGGAUCACCCAUGUUAUACACAUGGUUUAUUGUCCCUUGGCAGCACGUUAAGUUCG [JR_ExcTheophyB_Sub005] | 98.5 nM | – | 274 nM | – | 289 nM
ACGAUAGGACAUGAGGAUCACCCAUGUGAUACCAGCCUGGAAACAGGCCCUUGGCAGCACAAAUACUCCAGAAACCUAUCGAAUA [TheoAX2 #MicroSwitchBubble] | 124 nM | – | 294 nM | – | 273 nM
ACGCGUCAAGAGUAAAAUCCGUCAAGUGAUACCAGCCACAACGUAGGCCCUUGGCAGCACAUGAGGAUCACCCAUGUAAUAAGGA [Gedigerace] | 42.4 nM | 33.3 nM | 53.4 nM | 670 nM | 22.5 nM
ACUACGAAGACGGCCGCCACUGAUAUUCGUAGAUCCAUCAAUACAUGAGGAUCACCCAUGUAUAUCAGGACCGGGUCAAGAUGGU [Tryp B Ex t6] | 23.3 nM | – | 39.2 nM | 28.2 nM | –
ACUAGAGGUGGAAGGAGCGGGAGACAUGAGCAUCACAUGAGGAUCACCCAUGUAGGAUCAUCCCAGGUAGGUCGCCAUGUCGAAA [h.hgmullin] | 88.4 nM | 363 nM | 290 nM | 218 nM | 173 nM
ACUAGCGCACAUGAUACCAGCGACAUGAGGAUCACCCAUGUACGGCGUGUAUCGAAAGGUUGCCCUUGGCAGCAUGAUAGCGCUG [Cebiri] | 12.6 nM | – | 26.1 nM | – | 14.5 nM
ACUCGGCAUCAUGAUACCAGAGAGCCCGAGAUGCCUUAACACAUGAGGAUCACCCAUGUACUCCCUUGGCAGCAUCAUGCACUAU [theeternabot_exclusion_MS2_Theo_B_31] | 16.6 nM | – | 29 nM | – | 22.7 nM
ACUCGGUGUUUGUUGCUCCGAGUACGUGAUACCAGUUAAUUUUAUGGCCCUUGGCAGCAUGGGACAUGAGGAUCACCCAUGUUUA [#04 SameState-TheophyllineA] | 125 nM | – | 344 nM | – | 318 nM
AGAAUAACACAUGAGGAUCACCCAUGUGAUACCAGCUAGGAAACUAGCCCUUGGCAGCACAUAAUCCUCAUGAGCUGCCAUAAUA [(M1)-(M2)-(T1)-(T2)-(M)'-(T)'_Design2_2/19/17] | 12 nM | – | 19.2 nM | – | 12.3 nM
AGAAUAUAGUCGGCCGCCACUCUACAUACAUGAGGAUCACCCAUGUUUACAUAGUGGAAACACAUGAGGACCGGGACAUAGGCAU [#16 Same State - Tryptophan B] | 8.17 nM | 12.2 nM | 13.2 nM | 11 nM | 9.98 nM
AGACAUGAGGAUCACCCAUGUAGUACGGAUACCAGAUCCAGAUGCAUCCCUUGGCAGCUGUGGUACAGCGUUACAUCGCUCGUAG [Exclusion - Theophylline A (Freestyle 22)] | 17 nM | – | 23.9 nM | – | 18.8 nM
AGACAUGAGGAUCACCCAUGUAGUAUGGAUACCAGAUCCAGAUUUAUCCCUUGGCAGCUGUGGUACAGCGAUGGAUCGCUCCUAG [Exclusion - Theophylline A (Freestyle 11)] | 22.6 nM | – | 34 nM | – | 28 nM
